{"source": "patent US20030157522A1", "about": "“Methods and reagents for peptide-BIR interaction screens” (priority 2001, published 2003)", "key": {"[1]": {"test_system": "T24 bladder carcinoma cells", "experiment": "Sensitization of adriamycin-resistant T24 cells (cell survival)", "format": "cell-based", "details": "10 μg/ml adriamycin alone", "description": "FIG. 8 is a schematic illustration showing the effect of a compound identified as being capable of dislodging a HID 7mer from XIAP BIR3 on cell survival of T24 bladder carcinoma cells after 24 hours of exposure to 10 μg/ml adriamycin.\nThis is what we would expect from a compound that blocks the ability of IAPs to block caspases once the cell death pathways are activated by a death stimulus such as chemotherapy or radiation. Cancer cells in vivo may also die by the simple addition of the compound if the cancer cell is stressed by oncogene activation, nutrient deprivation, or loss of contact, and the IAPs are blocking caspases from effecting programmed cell death. The compound would be expected to antagonize IAP function and allow caspase activation under these situations."}, "XIAP BIR3 [2]": {"target": "T1, XIAP BIR3 (Homo sapiens, UniProt P98170)", "T1 construct": "as the C-terminal portion of XIAP lacking BIR1 and BIR2, and containing BIR3 and the RING domain to the final C-terminal residue; made in house; host or cells: E. coli", "T1 sequence (P98170 246-497 limits assumed)": "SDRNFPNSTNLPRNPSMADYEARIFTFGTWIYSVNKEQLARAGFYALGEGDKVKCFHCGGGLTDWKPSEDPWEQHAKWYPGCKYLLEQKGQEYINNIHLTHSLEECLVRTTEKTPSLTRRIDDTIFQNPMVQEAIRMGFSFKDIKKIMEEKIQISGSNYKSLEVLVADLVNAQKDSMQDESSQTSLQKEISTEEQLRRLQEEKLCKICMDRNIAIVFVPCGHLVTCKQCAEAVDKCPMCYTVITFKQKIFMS", "experiment": "Fluorescence polarization HID peptide displacement assay", "format": "binding", "details": "GST BIR3/Ring, fluorescein-HID probe", "description": "We developed an assay to screen for compounds capable of competing for the binding of an IAP-interacting peptide and displacing the peptide from its binding groove on BIR3 of XIAP (FIGS. 2-5). The BIR3 domain was produced as a GST fusion protein in E. Coli, as the C-terminal portion of XIAP lacking BIR1 and BIR2, and containing BIR3 and the RING domain to the final C-terminal residue, and purified to greater than 95% purity. Only the properly folded BIR3 domain is required here, and many fusion and purification strategies are available to achieve this.\nThe FP assay is based on the following principles: a smaller molecule tumbles more rapidly in solution than a larger one. A tumbling fluor will depolarize plane-polarized light, and any change in tumbling rate due to binding of the peptide to a larger molecule such as XIAP or the displacement of the peptide from XIAP, and therefore any change in fluorescence polarization can be accurately and sensitively measured (FIGS. 2A and 2B). […]\nAssays and High Throughput assays. […] Following overnight incubation at 4° C., the fluorescence polarization was measured using a Polarion plate reader (Tecan, Research Triangle Park, N.C.). […]\nUpon primary screening, hits were re-supplied from Talon Cheminformatics (Acton, ON, Canada) and a new 20 mM drug stock was prepared in 10% DMSO. […] Fluorescence Polarization Units are expressed in MP (FIG. 6)."}, "XIAP BIR3 [3]": {"target": "T1, XIAP BIR3", "details": "previously shown; cited from earlier work"}}, "note": "No end group written: not given here."}
{"compound": "COc1cccc2c1C(=O)c1c(O)c3c(c(O)c1C2=O)C[C@@](O)(C(=O)CO)C[C@@H]3O[C@H]1C[C@H](N)[C@H](O)[C@H](C)O1", "note": "[adriamycin]", "values": [{"measurement": "cell death with adriamycin on its own", "setting": "[1]", "result": "does not result in any cell death"}]}
{"compound": "Ala-Val-Pro-Phe-Tyr-Leu-Pro-Gly-Gly (AVPFYLPGG; not fully specified (C-terminus); printed as Ala-Val-Pro-Phe-Tyr-Leu-Pro-Gly-Gly; also: fluorescein label (probe form)) [HID peptide, peptide based on Drosophila HID with Gly-Gly spacer]", "values": [{"measurement": "competition with / displacement of fluorescein-labeled HID peptide from XIAP BIR3", "setting": "XIAP BIR3 [2]", "result": "compete off the fluorescein-labeled peptide"}, {"measurement": "competition with / displacement of fluorescein-labeled HID peptide from XIAP BIR3", "setting": "XIAP BIR3 [2]; listed as HID polypeptide", "result": "can compete with labeled HID polypeptide"}, {"measurement": "binding affinity to XIAP BIR3", "setting": "XIAP BIR3 [3]", "result": "high affinity"}]}
